Experimental findings from the FLAb antibody collection (doi:10.1101/2023.12.08.570889) are described below.

For orientation: Kd means the constant that tells how readily two partners part at equilibrium. Higher therefore signals a looser complex.

Sequences and labels used below:
B1: unnamed (protein)
chain 1: QMQLVESGGGVVQPGRSLRLSCAASGFTFRTYGMHWVRQAPGKGLEWVAVIWYDGSNKHYADSVKGRFTITRDNSKNTLNLQMNSLRAEDTAVYYCARAPRYYEAYEAFDVWGQGTMVTVSS
chain 2: SYVLTQPPSVSVAPGQTARITCGGNNLGSKSVHWYQQKPGQAPVLVVYDDSDRPSWIPERFSGSNSGNTATLTISRGEAGDEADYYCQVWDSSSDHVVFGGGTKLTVL
B2: unnamed (protein)
chain 1: QMQLVESGGGVVQPGRSLRLSCAASGFTFRTYGMHWVRQAPGKGLEWVAVIWYDGSNKHYADSVKGRFTITRDNSKNTLNLQMNSLRAEDTAVYYCARAPRYDEEYEAFDVWGQGTMVTVSS
chain 2: SYVLTQPPSVSVAPGQTARITCGGNNLGSKSVHWYQQKPGQAPVLVVYDDSDRPSWIPERFSGSNSGNTATLTISRGEAGDEADYYCQVWDSSSDHVVFGGGTKLTVL
B3: unnamed (protein)
chain 1: QMQLVESGGGVVQPGRSLRLSCAASGFTFRTYGMHWVRQAPGKGLEWVAVIWYDGSNKHYADSVKGRFTITRDNSKNTLNLQMNSLRAEDTAVYYCARAPRYYDYYEAFDVWGQGTMVTVSS
chain 2: SYVLTQPPSVSVAPGQTARITCGGNNLGSKSVHWYQQKPGQAPVLVVYDDSDRPSWIPERFSGSNSGNTATLTISRGEAGDEADYYCQVWDSSSDHVVFGGGTKLTVL
B4: unnamed (protein)
chain 1: QMQLVESGGGVVQPGRSLRLSCAASGFTFRTYGMHWVRQAPGKGLEWVAVIWYDGSNKHYADSVKGRFTITRDNSKNTLNLQMNSLRAEDTAVYYCARAPRYYDAYEAFDVWGQGTMVTVSS
chain 2: SYVLTQPPSVSVAPGQTARITCGGNNLGSKSVHWYQQKPGQAPVLVVYDDSDRPSWIPERFSGSNSGNTATLTISRGEAGDEADYYCQVWDSSSDHVVFGGGTKLTVL
B5: unnamed (protein)
chain 1: QMQLVESGGGVVQPGRSLRLSCAASGFTFRTYGMHWVRQAPGKGLEWVAVIWYDGSNKHYADSVKGRFTITRDNSKNTLNLQMNSLRAEDTAVYYCARAPRYDWYVEAFDVWGQGTMVTVSS
chain 2: SYVLTQPPSVSVAPGQTARITCGGNNLGSKSVHWYQQKPGQAPVLVVYDDSDRPSWIPERFSGSNSGNTATLTISRGEAGDEADYYCQVWDSSSDHVVFGGGTKLTVL
B6: unnamed (protein)
chain 1: QMQLVESGGGVVQPGRSLRLSCAASGFTFRTYGMHWVRQAPGKGLEWVAVIWYDGSNKHYADSVKGRFTITRDNSKNTLNLQMNSLRAEDTAVYYCARAPRYDWYYEAFDVWGQGTMVTVSS
chain 2: SYVLTQPPSVSVAPGQTARITCGGNNLGSKSVHWYQQKPGQAPVLVVYDDSDRPSWIPERFSGSNSGNTATLTISRGEAGDEADYYCQVWDSSSDHVVFGGGTKLTVL
B7: unnamed (protein)
chain 1: QMQLVESGGGVVQPGRSLRLSCAASGFTFRTYGMHWVRQAPGKGLEWVAVIWYDGSNKHYADSVKGRFTITRDNSKNTLNLQMNSLRAEDTAVYYCARAPRYDETWEAFDVWGQGTMVTVSS
chain 2: SYVLTQPPSVSVAPGQTARITCGGNNLGSKSVHWYQQKPGQAPVLVVYDDSDRPSWIPERFSGSNSGNTATLTISRGEAGDEADYYCQVWDSSSDHVVFGGGTKLTVL
B8: unnamed (protein)
chain 1: QMQLVESGGGVVQPGRSLRLSCAASGFTFRTYGMHWVRQAPGKGLEWVAVIWYDGSNKHYADSVKGRFTITRDNSKNTLNLQMNSLRAEDTAVYYCARAPRYYEYLEAFDVWGQGTMVTVSS
chain 2: SYVLTQPPSVSVAPGQTARITCGGNNLGSKSVHWYQQKPGQAPVLVVYDDSDRPSWIPERFSGSNSGNTATLTISRGEAGDEADYYCQVWDSSSDHVVFGGGTKLTVL
B9: unnamed (protein)
chain 1: QMQLVESGGGVVQPGRSLRLSCAASGFTFRTYGMHWVRQAPGKGLEWVAVIWYDGSNKHYADSVKGRFTITRDNSKNTLNLQMNSLRAEDTAVYYCARAPRYDDYYDAFDVWGQGTMVTVSS
chain 2: SYVLTQPPSVSVAPGQTARITCGGNNLGSKSVHWYQQKPGQAPVLVVYDDSDRPSWIPERFSGSNSGNTATLTISRGEAGDEADYYCQVWDSSSDHVVFGGGTKLTVL
B10: unnamed (protein)
chain 1: QMQLVESGGGVVQPGRSLRLSCAASGFTFRTYGMHWVRQAPGKGLEWVAVIWYDGSNKHYADSVKGRFTITRDNSKNTLNLQMNSLRAEDTAVYYCARAPRYDYYWEAFDVWGQGTMVTVSS
chain 2: SYVLTQPPSVSVAPGQTARITCGGNNLGSKSVHWYQQKPGQAPVLVVYDDSDRPSWIPERFSGSNSGNTATLTISRGEAGDEADYYCQVWDSSSDHVVFGGGTKLTVL

This experiment addresses TSLP, Q969D9. The experiment is described as follows: Kd (SPR).
Take B1: the Kd was 31 nM. For the molecule B2, the Kd is 78.9 nM. As for B3, the figure is 33.2 nM; as for B4, 33.5 nM; as for B5, 54.2 nM. As to B6, the Kd came to 48.2 nM. Molecule B7 returned a Kd of 141 nM. Turning to B8, the Kd turned out to be 31.9 nM. The result for B9 reads 163 nM. In the case of B10, the Kd was 175 nM.
